Source: US20140350225A1 (JINAN UNIVERSITY, published 2014)

Target: T1, basic Fibroblast Growth Factor (bFGF) (human, UniProt P09038 143-288, limits assumed)
T1 construct: Bought recombinant protein; It was coated on ELISA plates; also called recombined humanized bFGF; antigen bFGF
Assay: indirect ELISA: bFGF coated at 0.5 ug/ml, anti-His-tag detection, A450
Description: The recombined humanized bFGF (Sigma-Aldrich Co.) was diluted to 0.5 μg/ml with carbonate buffer solution (0.05 mol/L, pH9.6) to coat ELISA plates at an amount of 100 μL/well, and incubated at 37° C. for 3 h. After discarding the liquid in the well, the plates were washed with PBST (PBS, 0.015 mol/L, pH 7.4, comprising Tween 20 0.05% (v/v)) for three times, blocked with fat-free milk-PBST 5% (wt), added with the ds-Diabody and anti-bFGF ScFv prepared according to example 1 at a certain concentration to achieve an amount of 100 μL/well. Then the plates were incubated at 37° C. for 1 h, washed with PBST for three times, added with 100 μL/well diluted anti-His-tag mouse monoclonal antibody 1:2000 (v/v) (sigma-aldrich Co.), incubated at 37° C. for 1 h, washed with PBS-T for three times again, and then added with diluted HRP marked goat anti-mouse polyclonal antibody (1:8000 (v/v) (sigma-aldrich Co.), and incubated at 37° C. for 0.5 h. After that, the plates were washed with PBS-T for 5 times, stained by TMB and detected at A450. Meanwhile, PBS was used as a negative control.

T1 sequence (P09038 143-288 limits assumed): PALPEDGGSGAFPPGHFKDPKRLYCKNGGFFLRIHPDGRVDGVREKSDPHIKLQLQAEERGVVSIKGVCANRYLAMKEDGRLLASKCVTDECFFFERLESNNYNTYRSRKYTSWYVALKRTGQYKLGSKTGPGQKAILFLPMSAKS

binding result: binds
B1: anti-bFGF humanized ds-Diabody (other)
chain: QSVLTQPASVSGSPGQSITISCTGTSSDVGGYNYVSWYQQHPGKAPKLMIYDVSNRPSGVSNRFSGSKSGNTASLTISGLQAEDEADYYCSSYTSSSTVVFGCGTKLTVLGGGGSQVQLQESGGGLVQPGGSLRLSCAASGFTFSSYEMNWVRQAPGKCLEWVSYISSSGSTIYYADSVKGRFTISRDNAKNSLYLQMNSLRAEDTAVYYCARELTGDWGAFDIWGQGTMVTVSSHHHHHH
notes: Dimer of two VL-GGGGS-VH chains joined covalently by disulfide bonds between Cys at VL 100 and Cys at VH 44; Bivalent; Expressed in HEK 293T cells and purified on a Ni column; also called disulfide bond stabilized-diabody; VL-GGGGS-VH; not shown: N-terminal residues from the vector p3XFLAG-Myc-CMV-25, if any stay on the secreted protein
